In article doi:10.1101/2024.06.13.598860, “The Mlh1-Pms1 endonuclease uses ATP to preserve DNA discontinuities as strand discrimination signals to facilitate mismatch repair”:

Experiments:
Mlh1-Pms1 [1] = target: T1, Mlh1-Pms1 (Saccharomyces cerevisiae (yeast), UniProt P38920;P14242 1-769;1-873); experiment: EMSA; 120 mM NaCl, no ATP; 20 mM HEPES-KOH (pH not given), 0.1 mM DTT, 2 mM MgCl2, 40 ug/mL BSA, 6% glycerol; plasmid DNA 3.8 nM, 10 min room temperature, agarose EMSA; oligonucleotides plus 120 mM NaCl, 10 min 4 C, 4% PAGE; settings: protein: recombinant, copies: 1;1, label: 5'-32P on CMO169
Mlh1-Pms1 [2] = target: T1, Mlh1-Pms1; experiment: EMSA; 120 mM NaCl, 0.5 mM ATP; 20 mM HEPES-KOH (pH not given), 0.1 mM DTT, 2 mM MgCl2, 40 ug/mL BSA, 6% glycerol; plasmid DNA 3.8 nM, 10 min room temperature, agarose EMSA; oligonucleotides plus 120 mM NaCl, 10 min 4 C, 4% PAGE; settings: protein: recombinant, copies: 1;1, label: 5'-32P on CMO169
[3] = nicked duplex, blunt ends, 1:2 1:3, nick between strands 2 and 3

T1 sequence (P38920 whole entry, chain 1 of 2): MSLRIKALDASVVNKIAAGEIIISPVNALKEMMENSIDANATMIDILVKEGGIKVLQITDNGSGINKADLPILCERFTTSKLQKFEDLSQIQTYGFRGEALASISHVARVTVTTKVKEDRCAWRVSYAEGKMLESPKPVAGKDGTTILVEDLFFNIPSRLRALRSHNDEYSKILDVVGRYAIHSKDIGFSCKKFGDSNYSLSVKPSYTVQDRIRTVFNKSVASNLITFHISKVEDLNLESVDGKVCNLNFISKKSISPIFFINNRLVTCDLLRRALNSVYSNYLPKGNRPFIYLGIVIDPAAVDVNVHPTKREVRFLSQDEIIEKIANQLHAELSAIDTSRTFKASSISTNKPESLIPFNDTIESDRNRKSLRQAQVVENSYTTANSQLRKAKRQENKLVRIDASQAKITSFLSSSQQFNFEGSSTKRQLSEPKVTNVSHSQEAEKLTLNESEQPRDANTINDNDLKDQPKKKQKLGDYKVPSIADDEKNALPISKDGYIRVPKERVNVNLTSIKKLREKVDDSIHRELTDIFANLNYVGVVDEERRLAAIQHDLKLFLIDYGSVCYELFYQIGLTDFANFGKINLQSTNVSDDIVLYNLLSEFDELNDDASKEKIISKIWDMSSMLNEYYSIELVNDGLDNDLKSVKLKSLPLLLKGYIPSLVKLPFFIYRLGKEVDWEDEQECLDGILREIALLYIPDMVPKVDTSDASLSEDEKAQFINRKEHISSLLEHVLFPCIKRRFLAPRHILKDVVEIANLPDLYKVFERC
T1 sequence (P14242 whole entry, chain 2 of 2): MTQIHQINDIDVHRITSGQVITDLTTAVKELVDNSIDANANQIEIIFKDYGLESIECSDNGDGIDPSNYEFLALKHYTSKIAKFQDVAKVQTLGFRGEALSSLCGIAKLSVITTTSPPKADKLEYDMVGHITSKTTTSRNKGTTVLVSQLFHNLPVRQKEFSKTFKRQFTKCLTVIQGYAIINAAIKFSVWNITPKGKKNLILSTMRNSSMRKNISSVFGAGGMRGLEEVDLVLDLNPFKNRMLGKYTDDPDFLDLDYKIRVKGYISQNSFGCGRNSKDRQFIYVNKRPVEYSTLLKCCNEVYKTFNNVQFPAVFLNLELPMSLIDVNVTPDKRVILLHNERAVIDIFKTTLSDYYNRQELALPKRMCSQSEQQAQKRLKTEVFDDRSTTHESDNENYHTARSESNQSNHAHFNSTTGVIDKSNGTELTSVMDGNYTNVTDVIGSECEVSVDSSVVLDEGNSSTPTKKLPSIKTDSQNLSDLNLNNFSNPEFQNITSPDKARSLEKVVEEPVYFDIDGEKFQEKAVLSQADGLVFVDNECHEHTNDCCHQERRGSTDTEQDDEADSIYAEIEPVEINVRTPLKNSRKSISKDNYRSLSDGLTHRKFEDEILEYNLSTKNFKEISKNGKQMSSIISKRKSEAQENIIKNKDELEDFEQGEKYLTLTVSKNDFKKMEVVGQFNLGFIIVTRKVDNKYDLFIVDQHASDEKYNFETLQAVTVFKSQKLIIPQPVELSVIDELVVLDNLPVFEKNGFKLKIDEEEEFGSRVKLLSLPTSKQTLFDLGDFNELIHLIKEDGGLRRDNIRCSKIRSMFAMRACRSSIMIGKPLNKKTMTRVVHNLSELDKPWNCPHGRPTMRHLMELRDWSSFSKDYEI

| Binder | Kd (Mlh1-Pms1 [1]; blunt) [nM] | Kd (Mlh1-Pms1 [2]; blunt) [nM] | Kd (Mlh1-Pms1 [1]; [3]) [nM] | Kd (Mlh1-Pms1 [2]; [3]) [nM] |
| --- | --- | --- | --- | --- |
| intact 75-mer duplex (dsDNA) DNA 1: TCGACCTAAGTCTAGCAGGTCACGTCACGCTACCGAATTCTGACTTGCTAGGACATCTTTGCTCACGTTGACCCA DNA 2: TGGGTCAACGTGAGCAAAGATGTCCTAGCAAGTCAGAATTCGGTAGCGTGACGTGACCTGCTAGACTTAGGTCGA | 96 ± 20 | 79 ± 8 |  |  |
| discontinuous 75-mer duplex (single strand break) (dsDNA) DNA 1: TCGACCTAAGTCTAGCAGGTCACGTCACGCTACCGAATTCTGACTTGCTAGGACATCTTTGCTCACGTTGACCCA DNA 2: TGGGTCAACGTGAGCAAAGATGTCCTAGCAAGTCAGA DNA 3: ATTCGGTAGCGTGACGTGACCTGCTAGACTTAGGTCGA |  |  | 79 ± 3 | 77 ± 6 |
